Source: the supplement of paper PMC9112550, “Optimization of the antimicrobial peptide Bac7 by deep mutational scanning” (BMC Biology, 2022)

These sequences were tested on Escherichia coli TOP10 (assay: shrunken log2 fold change of peptide-encoding DNA abundance (4.5 h post-induction vs induction); higher = less antimicrobial activity (less host growth inhibition)). Conditions: time post-induction: 4.5 h; library: site-saturation at positions 5, 18, 19, 20.
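Also: peptides expressed intracellularly from a pBAD plasmid library in pooled LB shake-flask culture, induced with 0.3% L-arabinose, DNA abundance read by NGS, three biological replicates, DESeq2 with apeglm shrinkage.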

Question: For RRIRDRPPRLPRPRPRPGKNPRP, which “shrunken log2 fold change” value is on record?
Answer: -0.543

Question: With RRIRDRPPRLPRPRPRPGKVPRP as the sequence, how does the “shrunken log2 fold change” value read?
Answer: -0.00262

Question: RRIRDRPPRLPRPRPRPGLIPRP was tested. Which “shrunken log2 fold change” value did it give?
Answer: 0.0516

Question: How did the “shrunken log2 fold change” value turn out when RRIRDRPPRLPRPRPRPGLQPRP was run?
Answer: 0.56

Question: For RRIRDRPPRLPRPRPRPGLTPRP, which “shrunken log2 fold change” value is on record?
Answer: 0.262

Question: Which “shrunken log2 fold change” value does the source give for RRIRDRPPRLPRPRPRPGLVPRP here?
Answer: 0.644

Question: For RRIRDRPPRLPRPRPRPGSMPRP, which “shrunken log2 fold change” value is on record?
Answer: -0.403

Question: RRIRDRPPRLPRPRPRPGSPPRP was tested. Which “shrunken log2 fold change” value did it give?
Answer: 0.0355

Question: For RRIRDRPPRLPRPRPRPGTAPRP, which “shrunken log2 fold change” value is on record?
Answer: 0.0777

Question: RRIRDRPPRLPRPRPRPGTQPRP was tested. Which “shrunken log2 fold change” value did it give?
Answer: 0.00934

Question: Which “shrunken log2 fold change” value does the source give for RRIRDRPPRLPRPRPRPGTWPRP here?
Answer: 0.475

Question: For RRIRDRPPRLPRPRPRPGTYPRP, which “shrunken log2 fold change” value is on record?
Answer: -0.227

Question: How did the “shrunken log2 fold change” value turn out when RRIRDRPPRLPRPRPRPGWKPRP was run?
Answer: 0.136

Question: Which “shrunken log2 fold change” value does the source give for RRIRDRPPRLPRPRPRPHALPRP here?
Answer: -0.225

Question: For RRIRDRPPRLPRPRPRPHDEPRP, which “shrunken log2 fold change” value is on record?
Answer: 0.167

Question: RRIRDRPPRLPRPRPRPHDIPRP was tested. Which “shrunken log2 fold change” value did it give?
Answer: 0.0555

Question: Which “shrunken log2 fold change” value does the source give for RRIRDRPPRLPRPRPRPHGCPRP here?
Answer: -0.00865

Question: Which “shrunken log2 fold change” value does the source give for RRIRDRPPRLPRPRPRPHGHPRP here?
Answer: 0.0317

Question: How did the “shrunken log2 fold change” value turn out when RRIRDRPPRLPRPRPRPHGIPRP was run?
Answer: -0.265

Question: Which “shrunken log2 fold change” value does the source give for RRIRDRPPRLPRPRPRPHGRPRP here?
Answer: 0.0088

Question: RRIRDRPPRLPRPRPRPHHIPRP was tested. Which “shrunken log2 fold change” value did it give?
Answer: -0.361

Question: With RRIRDRPPRLPRPRPRPHHTPRP as the sequence, how does the “shrunken log2 fold change” value read?
Answer: -1.13

Question: With RRIRDRPPRLPRPRPRPHIGPRP as the sequence, how does the “shrunken log2 fold change” value read?
Answer: -0.0522

Question: With RRIRDRPPRLPRPRPRPHIWPRP as the sequence, how does the “shrunken log2 fold change” value read?
Answer: -0.0717

Question: With RRIRDRPPRLPRPRPRPHKGPRP as the sequence, how does the “shrunken log2 fold change” value read?
Answer: 0.0993

Question: How did the “shrunken log2 fold change” value turn out when RRIRDRPPRLPRPRPRPHLCPRP was run?
Answer: -0.0584

Question: How did the “shrunken log2 fold change” value turn out when RRIRDRPPRLPRPRPRPHLYPRP was run?
Answer: 0.0039

Question: With RRIRDRPPRLPRPRPRPHNMPRP as the sequence, how does the “shrunken log2 fold change” value read?
Answer: -0.135

Question: For RRIRDRPPRLPRPRPRPHNTPRP, which “shrunken log2 fold change” value is on record?
Answer: -0.531

Question: RRIRDRPPRLPRPRPRPHNWPRP was tested. Which “shrunken log2 fold change” value did it give?
Answer: -0.144

Question: RRIRDRPPRLPRPRPRPHPMPRP was tested. Which “shrunken log2 fold change” value did it give?
Answer: 0.0468

Question: Which “shrunken log2 fold change” value does the source give for RRIRDRPPRLPRPRPRPHPNPRP here?
Answer: -0.662

Question: Which “shrunken log2 fold change” value does the source give for RRIRDRPPRLPRPRPRPHQRPRP here?
Answer: 0.0159

Question: For RRIRDRPPRLPRPRPRPHRDPRP, which “shrunken log2 fold change” value is on record?
Answer: -0.0968

Question: With RRIRDRPPRLPRPRPRPHSHPRP as the sequence, how does the “shrunken log2 fold change” value read?
Answer: -0.19

Question: For RRIRDRPPRLPRPRPRPHTAPRP, which “shrunken log2 fold change” value is on record?
Answer: -0.0443

Question: For RRIRDRPPRLPRPRPRPHTSPRP, which “shrunken log2 fold change” value is on record?
Answer: 0.0247

Question: RRIRDRPPRLPRPRPRPHVIPRP was tested. Which “shrunken log2 fold change” value did it give?
Answer: -0.0856

Question: Which “shrunken log2 fold change” value does the source give for RRIRDRPPRLPRPRPRPIFSPRP here?
Answer: -0.182

Question: Which “shrunken log2 fold change” value does the source give for RRIRDRPPRLPRPRPRPIGNPRP here?
Answer: 0.279

Question: RRIRDRPPRLPRPRPRPIHDPRP was tested. Which “shrunken log2 fold change” value did it give?
Answer: -0.58

Question: With RRIRDRPPRLPRPRPRPIHIPRP as the sequence, how does the “shrunken log2 fold change” value read?
Answer: -0.734

Question: With RRIRDRPPRLPRPRPRPIHVPRP as the sequence, how does the “shrunken log2 fold change” value read?
Answer: -0.554

Question: How did the “shrunken log2 fold change” value turn out when RRIRDRPPRLPRPRPRPIKTPRP was run?
Answer: 0.058

Question: For RRIRDRPPRLPRPRPRPIKVPRP, which “shrunken log2 fold change” value is on record?
Answer: 0.00881

Question: For RRIRDRPPRLPRPRPRPINFPRP, which “shrunken log2 fold change” value is on record?
Answer: -0.0167

Question: With RRIRDRPPRLPRPRPRPINNPRP as the sequence, how does the “shrunken log2 fold change” value read?
Answer: -1.21

Question: RRIRDRPPRLPRPRPRPIQMPRP was tested. Which “shrunken log2 fold change” value did it give?
Answer: 0.137

Question: With RRIRDRPPRLPRPRPRPISFPRP as the sequence, how does the “shrunken log2 fold change” value read?
Answer: -0.0563

Question: For RRIRDRPPRLPRPRPRPITQPRP, which “shrunken log2 fold change” value is on record?
Answer: 0.000804

Question: Which “shrunken log2 fold change” value does the source give for RRIRDRPPRLPRPRPRPIWKPRP here?
Answer: -0.00783

Question: For RRIRDRPPRLPRPRPRPIWLPRP, which “shrunken log2 fold change” value is on record?
Answer: 0.0516

Question: For RRIRDRPPRLPRPRPRPIWPPRP, which “shrunken log2 fold change” value is on record?
Answer: 0.0998

Question: For RRIRDRPPRLPRPRPRPIYGPRP, which “shrunken log2 fold change” value is on record?
Answer: -0.0774

Question: For RRIRDRPPRLPRPRPRPIYHPRP, which “shrunken log2 fold change” value is on record?
Answer: -0.827

Question: Which “shrunken log2 fold change” value does the source give for RRIRDRPPRLPRPRPRPIYVPRP here?
Answer: -0.0326

Question: How did the “shrunken log2 fold change” value turn out when RRIRDRPPRLPRPRPRPKERPRP was run?
Answer: -0.0193

Question: With RRIRDRPPRLPRPRPRPKHGPRP as the sequence, how does the “shrunken log2 fold change” value read?
Answer: 0.0517

Question: RRIRDRPPRLPRPRPRPKHHPRP was tested. Which “shrunken log2 fold change” value did it give?
Answer: -0.272

Question: How did the “shrunken log2 fold change” value turn out when RRIRDRPPRLPRPRPRPKHPPRP was run?
Answer: 0.0483

Question: Which “shrunken log2 fold change” value does the source give for RRIRDRPPRLPRPRPRPKHTPRP here?
Answer: 0.136

Question: With RRIRDRPPRLPRPRPRPKIAPRP as the sequence, how does the “shrunken log2 fold change” value read?
Answer: -0.0493

Question: With RRIRDRPPRLPRPRPRPKIKPRP as the sequence, how does the “shrunken log2 fold change” value read?
Answer: 2.05

Question: RRIRDRPPRLPRPRPRPKMGPRP was tested. Which “shrunken log2 fold change” value did it give?
Answer: -0.0622

Question: How did the “shrunken log2 fold change” value turn out when RRIRDRPPRLPRPRPRPKMHPRP was run?
Answer: 0.159

Question: With RRIRDRPPRLPRPRPRPKPIPRP as the sequence, how does the “shrunken log2 fold change” value read?
Answer: 0.106

Question: With RRIRDRPPRLPRPRPRPKPPPRP as the sequence, how does the “shrunken log2 fold change” value read?
Answer: 0.471

Question: Which “shrunken log2 fold change” value does the source give for RRIRDRPPRLPRPRPRPKQMPRP here?
Answer: 0.113

Question: With RRIRDRPPRLPRPRPRPKSIPRP as the sequence, how does the “shrunken log2 fold change” value read?
Answer: 0.114

Question: RRIRDRPPRLPRPRPRPKTIPRP was tested. Which “shrunken log2 fold change” value did it give?
Answer: -0.00641

Question: RRIRDRPPRLPRPRPRPKTTPRP was tested. Which “shrunken log2 fold change” value did it give?
Answer: 0.0604

Question: How did the “shrunken log2 fold change” value turn out when RRIRDRPPRLPRPRPRPKWWPRP was run?
Answer: 0.00489

Question: How did the “shrunken log2 fold change” value turn out when RRIRDRPPRLPRPRPRPKYAPRP was run?
Answer: 0.0137

Question: For RRIRDRPPRLPRPRPRPKYSPRP, which “shrunken log2 fold change” value is on record?
Answer: -0.0792

Question: Which “shrunken log2 fold change” value does the source give for RRIRDRPPRLPRPRPRPLCRPRP here?
Answer: -0.0528
